According to patent US20240131162A1 (MacroGenics, published 2024):
Changes are numbered by the printed parent chain. Names may count otherwise.

B1: Fc mutant 12: F243L R292P Y300L (other, UniProt P01857-1 104-330, looked up)
chain: DKTHTCPPCPAPELLGGPSVFLLPPKPKDTLMISRTPEVTCVVVDVSHEDPEVKFNWYVDGVEVHNAKTKPPEEQYNSTLRVVSVLTVLHQDWLNGKEYKCKVSNKALPAPIEKTISKAKGQPREPQVYTLPPSRDELTKNQVSLTCLVKGFYPSDIAVEWESNGQPENNYKTTPPVLDSDGSFFLYSKLTVDKSRWQQGNVFSCSVMHEALHNHYTQKSLSLSPGK
notes: domain: Fc
B2: Fc variant R255L D270E R292G P396L (other, UniProt P01857-1 104-330, looked up)
chain: B1 chain with L23F, R35L, D50E, P72G, L80Y, P176L
notes: domain: Fc
B3: Fc variant F243L D270E G316D R416G (other, UniProt P01857-1 104-330, looked up)
chain: B1 chain with D50E, P72R, L80Y, G96D, R196G
notes: domain: Fc
B4: Fc variant R255L D270E P396L (other, UniProt P01857-1 104-330, looked up)
chain: B1 chain with L23F, R35L, D50E, P72R, L80Y, P176L
notes: domain: Fc
B5: Fc mutant 14: F243L R292P P396L (other, UniProt P01857-1 104-330, looked up)
chain: B1 chain with L80Y, P176L
notes: domain: Fc
B6: Fc mutant 17: F243L R292P V305I P396L (other, UniProt P01857-1 104-330, looked up)
chain: B1 chain with L80Y, V85I, P176L
notes: domain: Fc
B7: Fc mutant 18: F243L R292P Y300L V305I P396L (other, UniProt P01857-1 104-330, looked up)
chain: B1 chain with V85I, P176L
notes: domain: Fc; Same substitutions as the Fc of ch4D5-FcMT1
B8: Fc variant D270E P396L Q419H (other, UniProt P01857-1 104-330, looked up)
chain: B1 chain with L23F, D50E, P72R, L80Y, P176L, Q199H
notes: domain: Fc
B9: Fc variant F243L D270E P396L Q419H (other, UniProt P01857-1 104-330, looked up)
chain: B1 chain with D50E, P72R, L80Y, P176L, Q199H
notes: domain: Fc
B10: Fc variant F243I R292P Y300L V305I P396L (other, UniProt P01857-1 104-330, looked up)
chain: B1 chain with L23I, V85I, P176L
notes: domain: Fc; 'F243I' as printed
B11: Fc variant R255L D270E Y300L P396L (other, UniProt P01857-1 104-330, looked up)
chain: B1 chain with L23F, R35L, D50E, P72R, P176L
notes: domain: Fc
B12: Fc mutant 15: R292P V305I P396L (other, UniProt P01857-1 104-330, looked up)
chain: B1 chain with L23F, L80Y, V85I, P176L
notes: domain: Fc
B13: Fc variant F243L P247L D270E N421K (other, UniProt P01857-1 104-330, looked up)
chain: B1 chain with P27L, D50E, P72R, L80Y, N201K
notes: domain: Fc
B14: Fc variant F243L R255L D270E P396L (other, UniProt P01857-1 104-330, looked up)
chain: B1 chain with R35L, D50E, P72R, L80Y, P176L
notes: domain: Fc
B15: Fc mutant 13: F243L R292P V305I (other, UniProt P01857-1 104-330, looked up)
chain: B1 chain with L80Y, V85I
notes: domain: Fc
B16: Fc mutant 16: F243L R292P Y300L P396L (other, UniProt P01857-1 104-330, looked up)
chain: B1 chain with P176L
notes: domain: Fc
B17: Fc variant D270E G316D R416G (other, UniProt P01857-1 104-330, looked up)
chain: B1 chain with L23F, D50E, P72R, L80Y, G96D, R196G
notes: domain: Fc
B18: Fc variant D270E P396L G316D R416G (other, UniProt P01857-1 104-330, looked up)
chain: B1 chain with L23F, D50E, P72R, L80Y, G96D, P176L, R196G
notes: domain: Fc; also called D270E G316D P396L R416G
B19: Fc variant F243L D270E K392T P396L (other, UniProt P01857-1 104-330, looked up)
chain: B1 chain with D50E, P72R, L80Y, K172T, P176L
notes: domain: Fc
B20: Fc variant F243L P247L N421K (other, UniProt P01857-1 104-330, looked up)
chain: B1 chain with P27L, P72R, L80Y, N201K
notes: domain: Fc
B21: Fc variant D270E K392T P396L (other, UniProt P01857-1 104-330, looked up)
chain: B1 chain with L23F, D50E, P72R, L80Y, K172T, P176L
notes: domain: Fc
B22: Fc variant P247L D270E N421K (other, UniProt P01857-1 104-330, looked up)
chain: B1 chain with L23F, P27L, D50E, P72R, L80Y, N201K
notes: domain: Fc
B23: ch4D5-wild-type Fc (antibody, human IgG1, kappa)
heavy: not shown
light: DIVMTQSHKFMSTSVGDRVSITCKASQDVNTAVAWYQQKPGHSPKLLIYSASFRYTGVPDRFTGSRSGTDFTFTISSVQAEDLAVYYCQQHYTTPPTFGGGTKVEIKRTVAAPSVFIFPPSDEQLKSGTASVVCLLNNFYPREAKVQWKVDNALQSGNSQESVTEQDSKDSTYSLSSTLTLSKADYEKHKVYACEVTHQGLSSPVTKSFNRGEC
notes: Chimeric 4D5; also called ch4D5-FcWT; WT
B24: ch4D5-FcMT1 (antibody, human IgG1, kappa)
heavy: QVQLQQSGPELVKPGASLKLSCTASGFNIKDTYIHWVKQRPEQGLEWIGRIYPTNGYTRYDPKFQDKATITADTSSNTAYLQVSRLTSEDTAVYYCSRWGGDGFYAMDYWGQGASVTVSSASTKGPSVFPLAPSSKSTSGGTAALGCLVKDYFPEPVTVSWNSGALTSGVHTFPAVLQSSGLYSLSSVVTVPSSSLGTQTYICNVNHKPSNTKVDKRVEPKSCDKTHTCPPCPAPELLGGPSVFLLPPKPKDTLMISRTPEVTCVVVDVSHEDPEVKFNWYVDGVEVHNAKTKPPEEQYNSTLRVVSILTVLHQDWLNGKEYKCKVSNKALPAPIEKTISKAKGQPREPQVYTLPPSRDELTKNQVSLTCLVKGFYPSDIAVEWESNGQPENNYKTTPLVLDSDGSFFLYSKLTVDKSRWQQGNVFSCSVMHEALHNHYTQKSLSLSPGK
light: B23 light

Assays:
CD16A F158 [1] = biological target: T1, CD16A F158 (human, UniProt P08637 17-208, limits assumed); experiment: SPR (BIAcore), koff compared with wild-type Fc
T1 construct: construct not described
T1 sequence (P08637 17-208 limits assumed): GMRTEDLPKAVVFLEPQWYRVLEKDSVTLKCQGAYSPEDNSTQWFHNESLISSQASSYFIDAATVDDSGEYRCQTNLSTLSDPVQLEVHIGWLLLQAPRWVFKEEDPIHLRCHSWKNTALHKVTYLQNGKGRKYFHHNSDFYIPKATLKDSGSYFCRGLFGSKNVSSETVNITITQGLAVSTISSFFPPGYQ

CD32A^H = biological target: T2, CD32A^H (UniProt P12318 34-217, limits assumed); experiment: SPR (BIAcore), koff compared with wild-type Fc
T2 construct: also called FcγRIIA
T2 sequence (looked up): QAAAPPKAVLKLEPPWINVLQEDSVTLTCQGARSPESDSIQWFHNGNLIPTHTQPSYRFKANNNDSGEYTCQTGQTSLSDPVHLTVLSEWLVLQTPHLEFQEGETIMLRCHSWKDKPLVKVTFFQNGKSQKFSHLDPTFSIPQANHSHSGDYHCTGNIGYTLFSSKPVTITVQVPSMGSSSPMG

CD32B (FcγRII-B) [2] = biological target: T3, CD32B (FcγRII-B) (UniProt P31994 43-217, limits assumed); experiment: SPR (BIAcore), koff compared with wild-type Fc
T3 sequence (looked up): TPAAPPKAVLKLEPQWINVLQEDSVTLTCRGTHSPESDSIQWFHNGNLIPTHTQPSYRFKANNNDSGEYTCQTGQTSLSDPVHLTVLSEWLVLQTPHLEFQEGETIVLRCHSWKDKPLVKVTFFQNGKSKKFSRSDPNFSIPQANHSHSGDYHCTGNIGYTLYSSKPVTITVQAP

CD16A V158 [3] = biological target: T4, CD16A V158 (human, UniProt P08637 17-208, limits assumed); experiment: SPR (BIAcore), koff compared with wild-type Fc
T4 construct: construct not described
T4 sequence (P08637 17-208 F176V limits assumed): as the sequence (P08637 17-208 limits assumed) above, with F160V counted along it

CD32B (FcγRII-B) [4] = biological target: T3, CD32B (FcγRII-B); experiment: method not stated at Table 3
CD16A F158 [5] = biological target: T1, CD16A F158; experiment: method not stated at Table 3
CD16A V158 [6] = biological target: T4, CD16A V158; experiment: method not stated at Table 3
HER-2 = biological target: T5, HER-2 (human, UniProt P04626 23-652, limits assumed); experiment: SPR (BIAcore), HER-2 immobilised, antibody as analyte
T5 construct: also called HER2/neu; erbB-2
Method: The kinetic parameters of the binding of eluted and purified antibodies were analyzed using a BIACORE® assay (BIAcore instrument 1000, BIAcore Inc., Piscataway, N.J.) and associated software. HER-2 was immobilized on one of the four flow cells (flow cell 2) of a sensor chip surface through amine coupling chemistry (by modification of carboxymethyl groups with mixture of NHS/EDC) such that about 1000 response units (RU) of receptor was immobilized on the surface. Following this, the unreacted active esters were “capped off” with an injection of 1 M Et-NH2.

human CD16A (FcγRIII-A) = human CD16A (FcγRIII-A) (human, UniProt P08637 17-208, limits assumed); experiment: method not stated
Chain of human CD16A (FcγRIII-A) (P08637 17-208 limits assumed): as the sequence (P08637 17-208 limits assumed) above

| Binder | WT koff/mutant koff (CD16A F158 [1]) | WT koff/mutant koff (CD32A^H) | WT koff/mutant koff (CD32B (FcγRII-B) [2]) | WT koff/mutant koff (CD16A V158 [3]) | binding relative to wild-type Fc (CD32B (FcγRII-B) [4]) | binding relative to wild-type Fc (CD16A F158 [5]) | binding relative to wild-type Fc (CD16A V158 [6]) | koff (HER-2) | kon (HER-2) | fold increase in binding (human CD16A (FcγRIII-A)) |
| --- | --- | --- | --- | --- | --- | --- | --- | --- | --- | --- |
| B1 | 4.6 ratio | 1 ratio | 0.6 ratio | 7.4 ratio | – | – | – | – | – | – |
| B2 | – | – | – | – | 0.65 fold | – | – | – | – | – |
| B3 | – | – | – | – | 0.2 fold | 1.34 fold | 1.5 fold | – | – | – |
| B4 | – | – | – | – | 0.87 fold | 1.65 fold | 1.34 fold | – | – | – |
| B5 | – | 1.4 ratio | 0.4 ratio | 6.3 ratio | – | – | – | – | – | – |
| B6 | 2.3 ratio | 0.8 ratio | 0.4 ratio | 4 ratio | 0.4 fold | 2.53 fold | 5.37 fold | – | – | – |
| B7 | 8.3 ratio | 3.2 ratio | 1.4 ratio | 10.1 ratio | 1.38 fold | 8.25 fold | 10.1 fold | – | – | – |
| B8 | – | – | – | – | 0.68 fold | – | 1.64 fold | – | – | – |
| B9 | – | – | – | – | 0.26 fold | 1.15 fold | 1.46 fold | – | – | – |
| B10 | – | – | – | – | 1.05 fold | 3.12 fold | – | – | – | – |
| B11 | – | – | – | – | 0.87 fold | 1.74 fold | 1.52 fold | – | – | – |
| B12 | 1.9 ratio | 1.5 ratio | 0.9 ratio | 1.9 ratio | 0.92 fold | 1.9 fold | 1.85 fold | – | – | – |
| B13 | – | – | – | – | 0.32 fold | 3.45 fold | 2.3 fold | – | – | – |
| B14 | – | – | – | – | 0.38 fold | 1.64 fold | 1.75 fold | – | – | – |
| B15 | 1.4 ratio | 0.2 ratio | 0.1 ratio | 2.6 ratio | – | 1.43 fold | 2.56 fold | – | – | – |
| B16 | 5.6 ratio | 1.7 ratio | 1.1 ratio | 10.1 ratio | 1.07 fold | 5.62 fold | 10.1 fold | – | – | – |
| B17 | – | – | – | – | 0.78 fold | 2.49 fold | 2.18 fold | – | – | – |
| B18 | – | – | – | – | 1.07 fold | 0.94 fold | 1.22 fold | – | – | – |
| B19 | – | – | – | – | 0.44 fold | 2.44 fold | 3.16 fold | – | – | – |
| B20 | – | – | – | – | 0.17 fold | 1.71 fold | 1.89 fold | – | – | – |
| B21 | – | – | – | – | 0.79 fold | 2.28 fold | 1.81 fold | – | – | – |
| B22 | – | – | – | – | 0.58 fold | 2.46 fold | 1.89 fold | – | – | – |
| B23 | – | – | – | – | – | – | – | ~3.2e-07 s⁻¹ | 170000 M⁻¹ s⁻¹ | – |
| B24 | – | – | – | – | – | – | – | – | – | 10 fold |
